Data reported in patent US20190031764A1 (published 2019).

target: human PD1 antigen (human, UniProt Q15116 25-167); experiment: SPR
Sequence (Q15116 25-167): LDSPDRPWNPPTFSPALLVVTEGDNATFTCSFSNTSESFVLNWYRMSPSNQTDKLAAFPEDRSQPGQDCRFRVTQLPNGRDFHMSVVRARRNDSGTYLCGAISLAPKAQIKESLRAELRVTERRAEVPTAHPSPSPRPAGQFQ

Kd	Binder
1.38 nM	S75D variant of PD1B244 (antibody, V domains shown) VH: QVQLVQSGAEVKKPGSSVKVSCKASGGTFSSYAISWVRQAPGQGLEWMGGIIPIFDTANYAQKFQGRVTITADEDTSTAYMELSSLRSEDTAVYYCARPGLAAAYDTGSLDYWGQGTLVTVSS VL: EIVLTQSPATLSLSPGERATLSCRASQSVRSYLAWYQQKPGQAPRLLIYDASNRATGIPARFSGSGSGTDFTLTISSLEPEDFAVYYCQQRNYWPLTFGQGTKVEIK
1.36 nM	S88D variant of PD1B244 (antibody, V domains shown) VH: QVQLVQSGAEVKKPGSSVKVSCKASGGTFSSYAISWVRQAPGQGLEWMGGIIPIFDTANYAQKFQGRVTITADESTSTAYMELSSLRDEDTAVYYCARPGLAAAYDTGSLDYWGQGTLVTVSS VL: EIVLTQSPATLSLSPGERATLSCRASQSVRSYLAWYQQKPGQAPRLLIYDASNRATGIPARFSGSGSGTDFTLTISSLEPEDFAVYYCQQRNYWPLTFGQGTKVEIK
1.51 nM	S84D variant of PD1B244 (antibody, V domains shown) VH: QVQLVQSGAEVKKPGSSVKVSCKASGGTFSSYAISWVRQAPGQGLEWMGGIIPIFDTANYAQKFQGRVTITADESTSTAYMELDSLRSEDTAVYYCARPGLAAAYDTGSLDYWGQGTLVTVSS VL: EIVLTQSPATLSLSPGERATLSCRASQSVRSYLAWYQQKPGQAPRLLIYDASNRATGIPARFSGSGSGTDFTLTISSLEPEDFAVYYCQQRNYWPLTFGQGTKVEIK
